From the domain aggregation screens of Martell et al. (2025)

Assay: soluble fraction after stress (log2 fold change); higher = more stays soluble; pooled small domains, quantitative proteomics
Details: stress: pH 4
Summary of the method: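 With high-throughput quantitative proteomics, pooled custom libraries of small protein domains were measured after pH 4 stress. Each domain's soluble amount after the stress gives a fold change taken as aggregation propensity. Higher log2 values mean more of the domain stayed soluble.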

Row | Sequence | soluble fraction (log2)
1 | HMEMELNHVARRAGRLSGFLKGELRLSTGLMNRLKWSNAILVNGKPARTNAQVEPGDRITVILD | 0.189
2 | HMVSFSIDEALVSAVKGPRSANVMSIQRQFLVRLSVERDGRVTITGANSKSVQQAREAVEAAVEEAKLHP | 0.238
3 | HMKKEDFLEILRDYLKKGFSEDEVMDILRDYEEYFVDGIIEGKSEIEIIQSLGSPKEIANELLAES | -0.754
4 | HMDKPIFTLRENEVLYWASMGKTYAEIATIVGISVRTVKFHMGNVVSKLGVSNARQAIRLGVELDLITPMQ | -1.76
5 | HMDKLEKRILDYLLQKSAIDGSTILKISHREMAMDLGTAREVVTRILKKLETGGFVRQGENYLEILK | -0.456
6 | HMLTKGDRQSIRDSIIYMVGNAPRTLDYIVAESRYSEEDVIEAVRSLLSSHILSIDDSDMISLTRK | -0.362
7 | HMSTIKEKIIQYLDFKGISKYDFYQKTGVSNGVLSQKSGMSEDNIMRFLSYYDDINTDWLFYGKGEMIKT | -1.37
8 | HMTDFSDLSFKYNSEEKDVLNSINLKINGGEMTSLVGHSGAGKTTILNLIPRFYEKSKGDISIDGQSIY | -0.172
9 | HMRIDSFEDARRRFEYDYLTRLLKLTQGSVTQAAKLAKRNRTEFYKLLQRHGIEAAHFKPTS | ≥ 0.43
10 | HMSILTELDIGDKVEVVAGPFKGIQANITRIEPVRKEVTVILLDAPYQLPVTVDADYLKIIQKS | -0.0376
11 | HMINKIANLSAELRMEGLPVSIRSTQAAVKIYMDLGGDDRNLLKTALMSIYVKDRYDIPKFNKVFEKLFA | 0.0706
12 | HMAHSDEAWSVARRVARELDKILDGAGPRRTALVRAAAELRLSTRQIYNLLARYRADRTVTSLLPRR | -0.353
13 | HMLEVTQTDVKMYTTSGTPVYAAPDLNSAIVVYLERFVNVTVTGITDNGFYRVNLNGDYYIPGPYLISSV | -0.759
14 | HMNVTIGESIKNVINHYGTPIYSYNPNNQEKYYEFHTNKGVLVVTAIGKKNTGYVTRVSMTY | -0.175
15 | HMPVLDETVPAALDGERIDRVVALLADVSRNRAGIAIAAGSVRLDGAVVTQRSRKVRADEELVVDGLER | -0.00165
16 | HMKKTTEFAVTPEFQQRLEASPELKAAFQALTPGRQRAHLLFFAAPKQAQTRQARIEKSLPQIMAGKGLN | -0.0768
17 | HMEQVLDEEIIKSAVQKVIKDNPSAVSDYKAGKKTAFQFLIGKAMAELQGKGHPGKISELLEKE | 0.257
18 | HMETADREILLREIREIINERVDYNKDITDDEMKELVMNTVFERSRQQYMSIQDKQEIIQAIFNSMR | -1.02
19 | HMKLLLSANISKLRKKYSMTQEQLAEALGVTFASVSKWERGVATPELKLIAEMADMFEVSIDALIGYEFRN | -1.41

Row | Sequence | soluble fraction (log2)
20 | HMESAEQTGEELAARVNVLQTVSQALARELGREAAVEELADKMKMTVDEVKDIMKMAMDAMSM | -1.59
21 | HMTFPAILRELLEKHPQTGKRTTLKELGEAVGTRQQSISLYRNGDTQPSPDILVRIAAFFGVSVDYLL | -0.198
22 | HMTLSVRQRMSQIINKIDVSNFTDFTKLFDINEGRLGVAVTFLAILELLKDTMIDVIQNEEFAPLHIKVSS | -0.339
23 | HMQINLKQSSDEELVKIITVQVHHYEPHTVKAAEAEIERRGIDKMRMAHLVKKVAQENTAVQEIQD | 0.134
24 | HMETDGGDLTPRERDVLSLIGRGLRNAEAASALGLSEHTIAGHIKSVYSKLGISTRAEAALLASRLGL | -0.261
25 | HMDRESFIKLGRELARSAFAHVGQKSTEKALETAADVLRLKDPNEVLARLGSAELTGRQVVQAIYPELI | 0.0233
26 | HMNSRAERKEAAKEAIRNLLREGMTFEELTGPWLEKRFAEEPFNRGARSWQMLISEIKEEPEFQHL | -0.916
27 | HMGEAIPVPDLKHKALTDAEHLVHELGLEIQVVDTGYVKSLPADYILGQSLAPGEKVKSGHIIYVTINSP | 0.0193
28 | HMDSDIGQQLKILLTVGTFMPSTELKAIAQQFGMKKPTDLKEWVELESDTQRIKGNPTKGYWINEINDL | -0.262
29 | HMLADRANMAPAALRQIMTAIDGGNVTPKQIESATGMAHATVARALRKMLDDGLIANDGKGRYTVLT | 0.238
30 | HMSSSMDAIAEIIRSIPRGDHLTAPEVYELAKQRGLKLSLSTVYRTLNKLKVVGDVITVSGDRGLRYESV | 0.215
31 | HMHLIPRESTYEIDGRRFVVDSVNLDFGKVSLQDITFRNATGFPIFRSESIEFMRRLVEISEAQRIAEL | -0.114
32 | HMNNKVAVKSGYYFELFDKDEIPATLEKMKQKVKIDNIKYDLYQGTSLEDERKIDTMFGEKMGYSIDDYI | -0.527
33 | HMFHDALVSFAERRVIFMKELVNRLNEARKAYYEGESIMSDKEYDNLYDKLVKMELTTGVVLPNSPTEEVG | -0.754
34 | HMGKEWPTPDNVEEWKKLVKKARLWPIQADQAQSEETRERNRKKWELFVAYAKRFGYRAGIGETGKPFVNN | 0.164
35 | HMRQDEKTLLYWIGAQVKREGKLIKTSTAQYLVEKTGTDMENLEKELEKLFAYTLDEKEITPAAIDEI | -1.21
36 | HMENPPISVVIPPSFRGQRIDKALGSLIGDYSRSKIQQWLQSGLVQSAGEPLLPKYTVLGNEQILIAVPS | 0.03
37 | HMQWLDSIRSRLRVGQTISYFEPRENASSSGLIIELRRKRVLVLEIATQKRWLIEYAAINVDG | -0.325
38 | HMRDANYFINPIHEWQKRYEALRASFVDRLPAQAVAQRFGYTITYIHLLRHQFKSGKIDFSEPVPEG | -1.91
